Measured values from the supplement of paper PMC9233669.
This sample holds only a part of the variants without activity.

Tests used:
biotinyl-Phe-oxazolone = assay: self-aminoacylation, catalytic enhancement (BFO) (fold over background); higher = more active; k-Seq, kA / k0A0; sequences stand for … in GGGAAUGGAUCCACAUCUACGAAUUC…UUCACUGCAGACUUGACGAAGCUG
Outline: (§1)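 Catalytic enhancement equals the median kA over the uncatalyzed rate, the latter read from the low-activity peak of a bimodal Gaussian fit. Values of kA came from fitting each sequence's fraction reacted to a pseudo-first-order model, with 1000 bootstraps. Reacted RNA was captured with streptavidin and quantified by triplicate qPCR and Illumina sequencing after 90 minutes at room temperature with 2–1250 μM biotinyl-aminoacyl-oxazolone and 0.43 μM mutagenized RNA pools bearing a 21-nt variable region.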

biotinyl-Ile-oxazolone = assay: self-aminoacylation, catalytic enhancement (BIO) (fold over background); higher = more active; k-Seq, kA / k0A0; sequences stand for … in GGGAAUGGAUCCACAUCUACGAAUUC…UUCACUGCAGACUUGACGAAGCUG
Outline: as §1

biotinyl-Met-oxazolone = assay: self-aminoacylation, catalytic enhancement (BMO) (fold over background); higher = more active; k-Seq, kA / k0A0; sequences stand for … in GGGAAUGGAUCCACAUCUACGAAUUC…UUCACUGCAGACUUGACGAAGCUG
Outline: as §1

biotinyl-Val-oxazolone = assay: self-aminoacylation, catalytic enhancement (BVO) (fold over background); higher = more active; k-Seq, kA / k0A0; sequences stand for … in GGGAAUGGAUCCACAUCUACGAAUUC…UUCACUGCAGACUUGACGAAGCUG
Outline: as §1

biotinyl-Leu-oxazolone = assay: self-aminoacylation, catalytic enhancement (BLO) (fold over background); higher = more active; k-Seq, kA / k0A0; sequences stand for … in GGGAAUGGAUCCACAUCUACGAAUUC…UUCACUGCAGACUUGACGAAGCUG
Outline: as §1

biotinyl-Trp-oxazolone = assay: self-aminoacylation, catalytic enhancement (BWO) (fold over background); higher = more active; k-Seq, kA / k0A0; sequences stand for … in GGGAAUGGAUCCACAUCUACGAAUUC…UUCACUGCAGACUUGACGAAGCUG
Outline: as §1

Row | Sequence | self-aminoacylation (biotinyl-Phe-oxazolone) | self-aminoacylation (biotinyl-Ile-oxazolone) | self-aminoacylation (biotinyl-Met-oxazolone) | self-aminoacylation (biotinyl-Val-oxazolone) | self-aminoacylation (biotinyl-Leu-oxazolone) | self-aminoacylation (biotinyl-Trp-oxazolone)
1 | AUUCACCUAGGUGACCGGGUG [Fam2.2 aminoacylation ribozyme variant] | 23 | 4.8 | 3.84 | 4.19 | 5.29 | 6.82
2 | AUUCACCUAGGUGAUCGGCUG [Fam2.2 aminoacylation ribozyme variant] | 9.04 | 1.77 | 1.74 | 1.66 | 1.98 | 1.67
3 | AUUCACCUAGGUGAUCGGGUU [Fam2.2 aminoacylation ribozyme variant] | 9.06 | 1.85 | 1.89 | 1.88 | 2.59 | 1.06
4 | AUUCACCUAGGUGAUCGGUUG [Fam2.2 aminoacylation ribozyme variant] | 3.17 | 0.875 | 0.928 | 0.921 | 0.93 | 1.03
5 | AUUCACCUAGGUUAGCGGGUG [Fam2.2 aminoacylation ribozyme variant] | 19.7 | 2.55 | 2.98 | 2.22 | 2.9 | 3.43
6 | AUUCACCUAGGUUAUCGCGUG [Fam2.2 aminoacylation ribozyme variant] | 20.7 | 2.09 | 3.16 | 2.64 | 3.29 | 3.11
7 | AUUCACCUAGGUUAUCGGCUG [Fam2.2 aminoacylation ribozyme variant] | 4.24 | 1.45 | 1.73 | 1.57 | 1.79 | 1.44
8 | AUUCACCUAGGUUAUCGGGUA [Fam2.2 aminoacylation ribozyme variant] | 13.3 | 2.02 | 2.55 | 2.49 | 3.54 | 3.37
9 | AUUCACCUAGUUCAUCGAGUG [Fam2.2 aminoacylation ribozyme variant] | 1.17 | 0.949 | 1.21 | 1.04 | 1.31 | 1.25
10 | AUUCACCUAGUUCAUCGGGCG [Fam2.2 aminoacylation ribozyme variant] | 5.7 | 1.95 | 2.19 | 1.93 | 1.96 | 2.88
11 | AUUCACCUAUGUCAUCGGGGG [Fam2.2 aminoacylation ribozyme variant] | 6.23 | 1.5 | 2 | 1.38 | 1.93 | 1.58
12 | AUUCACCUAUGUCAUCGGGUA [Fam2.2 aminoacylation ribozyme variant] | 1.14 | 1.55 | 1.96 | 1.79 | 2.41 | 1.89
13 | AUUCACCUCGGUCAUCGGGCG [Fam2.2 aminoacylation ribozyme variant] | 19.5 | 2.49 | 3.37 | 3.43 | 3.62 | 2.32
14 | AUUCACCUCGGUCAUCGGGUG [Fam2.2 aminoacylation ribozyme variant] | 53.6 | 4.59 | 7.69 | 5.15 | 9.64 | 7.49
15 | AUUCACCUCGGUCAUCUGGUG [Fam2.2 aminoacylation ribozyme variant] | 29.2 | 2.17 | 3.29 | 2.16 | 4.16 | 3.2
16 | AUUCACCUCGGUCGUCGGGUG [Fam2.2 aminoacylation ribozyme variant] | 11.4 | 2.42 | 2.41 | 3.12 | 2.85 | 2.53
17 | AUUCACCUCGUUCAUCGGGUG [Fam2.2 aminoacylation ribozyme variant] | 26.3 | 2.93 | 4.1 | 3.3 | 5.48 | 5
18 | AUUCACCUGGGACAUCGGGUG [Fam2.2 aminoacylation ribozyme variant] | 55.4 | 4.15 | 7.06 | 4.3 | 6.71 | 5.11
19 | AUUCACCUGGGCCAUCGGGUG [Fam2.2 aminoacylation ribozyme variant] | 35.7 | 4.03 | 6.2 | 5.03 | 6.53 | 4.74
20 | AUUCACCUGGGUCAACGGGUG [Fam2.2 aminoacylation ribozyme variant] | 22.8 | 2.41 | 3.9 | 2.56 | 4.25 | 3.21
21 | AUUCACCUGGGUCACCGGGUG [Fam2.2 aminoacylation ribozyme variant] | 22.4 | 3.43 | 4.54 | 2.97 | 5.41 | 5.36
